# Measurements from patent US6333167.
# Columns and labels:
# [1] = molecular target: APP-LacI fusion protein encoded by pCMV-APPI (Artificial Sequence)
# [2] = molecular target: LacI-SREBP2 fusion protein encoded by pCMV-ISRP (human (SREBP2 portion))
Substance,"luciferase activity in the repressor release assay (pRSVO-luc reporter, CHO-K1 cells) (fold reduction) [1]","luciferase activity in the repressor release assay (pRSVO-luc reporter, CHO-K1 cells) (fold reduction) [2]"
γ-secretase (enzyme),35,–
Site-2 protease (S2P) (enzyme),–,100
